For assay [1], the target named is D3H44 Fab heavy chain L124E_L143E_K145M, C-terminal ABD2-His6 tag. The assay is described as follows: LCCA set 9266 (co-expression; SPR read-out of light-chain tags; L1:L2 DNA 1:3, normalized to 1:1); competing light chain m17.
Assay [2] shares this target. The assay is described as follows: LCCA (co-expression, SPR read-out of light chain tags), L1:L2 DNA 1:3 normalised to 1:1; competitor m13.
Assay [3] concerns the target D3H44 Fab heavy chain L124R_Q179K, C-terminal ABD2-His6 tag. Described as above.
Assay [4] has as its target D3H44 Fab heavy chain L124E_L143E_K145T, C-terminal ABD2-His6 tag. The description is as above.
The target in assay [5] is D3H44 Fab heavy chain L124E_L143D_K145T, C-terminal ABD2-His6 tag. The experiment in a line: LCCA (co-expression, SPR read-out of light chain tags), L1:L2 DNA 1:3 normalised to 1:1; competitor m16.
Assay [6] has as its target D3H44 Fab heavy chain L124R_S186K, C-terminal ABD2-His6 tag. Described as above.
The target of assay [7] is D3H44 Fab heavy chain L124E_L143E_K145M, C-terminal ABD2-His6 tag. Described as above.
For assay [8], the target named is D3H44 Fab heavy chain L124E_L143E_K145T, C-terminal ABD2-His6 tag. The assay is described as follows: LCCA set 9323 (co-expression; SPR read-out of light-chain tags; L1:L2 DNA 1:3, normalized to 1:1); competing light chain m14.
The target in assay [9] is D3H44 Fab heavy chain L124R_S186R, C-terminal ABD2-His6 tag. The experiment in a line: LCCA set 9550 (co-expression; SPR read-out of light-chain tags; L1:L2 DNA 1:3, normalized to 1:1); competing light chain m14.
Assay [10] deals with D3H44 Fab heavy chain L124R_S186K, C-terminal ABD2-His6 tag. The assay is described as follows: LCCA set 9488 (co-expression; SPR read-out of light-chain tags; L1:L2 DNA 1:3, normalized to 1:1); competing light chain m18.
In assay [11] the target is D3H44 Fab heavy chain L124E_L143D_K145T, C-terminal ABD2-His6 tag. The assay is described as follows: LCCA co-expression, SPR tag read-out; DNA 1:3 norm. to 1:1; competing light chain m13.
For assay [12], the target named is D3H44 Fab heavy chain L124R_S186K, C-terminal ABD2-His6 tag. The description is as above.
In assay [13] the target is D3H44 Fab heavy chain L124E_L143E_K145M, C-terminal ABD2-His6 tag. The description is as above.
Assay [14] deals with D3H44 Fab heavy chain L124R_Q179K, C-terminal ABD2-His6 tag. The assay is described as above.
Assay [15] has as its target D3H44 Fab heavy chain L124E_L143E_K145T, C-terminal ABD2-His6 tag. The assay is described as above.
Assay [16] has as its target D3H44 Fab heavy chain L124R_Q179K, C-terminal ABD2-His6 tag. The assay is described as follows: LCCA set 9388 (co-expression; SPR read-out of light-chain tags; L1:L2 DNA 1:3, normalized to 1:1); competing light chain m17.
Assay [17] addresses D3H44 Fab heavy chain L124E_L143E_K145T, C-terminal ABD2-His6 tag. The assay is described as follows: LCCA set 9316 (co-expression; SPR read-out of light-chain tags; L1:L2 DNA 1:3, normalized to 1:1); competing light chain m17.
The target is the same in assay [18]. The assay is described as follows: LCCA set 9320 (co-expression; SPR read-out of light-chain tags; L1:L2 DNA 1:3, normalized to 1:1); competing light chain m18.
The target in assay [19] is D3H44 Fab heavy chain L124R_S186R, C-terminal ABD2-His6 tag. The assay is described as follows: LCCA (co-expression, SPR read-out of light chain tags), L1:L2 DNA 1:3 normalised to 1:1; competitor m8.
Assay [20] addresses D3H44 Fab heavy chain L124R_S186K, C-terminal ABD2-His6 tag. The assay is described as above.
In assay [21] the target is D3H44 Fab heavy chain L124E_L143E_K145T, C-terminal ABD2-His6 tag. Described as above.
For assay [22], the target named is D3H44 Fab heavy chain L124E_L143D_K145T, C-terminal ABD2-His6 tag. The assay is described as follows: LCCA set 9240 (co-expression; SPR read-out of light-chain tags; L1:L2 DNA 1:3, normalized to 1:1); competing light chain m13.
Assay [23] addresses D3H44 Fab heavy chain L124R_S186R, C-terminal ABD2-His6 tag. The experiment in a line: LCCA co-expression, SPR tag read-out; DNA 1:3 norm. to 1:1; competing light chain m8.
In assay [24] the target is D3H44 Fab heavy chain L124R_Q179K, C-terminal ABD2-His6 tag. Described as above.
Assay [25] has as its target D3H44 Fab heavy chain L124E_L143E_K145T, C-terminal ABD2-His6 tag. The assay is described as above.
Assay [26] has as its target D3H44 Fab heavy chain L124R_Q179K, C-terminal ABD2-His6 tag. The assay is described as follows: LCCA co-expression, SPR tag read-out; DNA 1:3 norm. to 1:1; competing light chain m7.
The target in assay [27] is D3H44 Fab heavy chain L124E_L143E_K145T, C-terminal ABD2-His6 tag. The description is as above.
Assay [28] addresses D3H44 Fab heavy chain L124R_S186K, C-terminal ABD2-His6 tag. The assay is described as follows: LCCA set 9488 (co-expression; SPR read-out of light-chain tags; L1:L2 DNA 1:3, normalized to 1:1); competing light chain m9.
The target of assay [29] is D3H44 Fab heavy chain L124E_L143E_K145T, C-terminal ABD2-His6 tag. The experiment in a line: LCCA set 9320 (co-expression; SPR read-out of light-chain tags; L1:L2 DNA 1:3, normalized to 1:1); competing light chain m9.
For assay [30], the target named is D3H44 Fab heavy chain L124E_L143D_K145M, C-terminal ABD2-His6 tag. The experiment in a line: LCCA set 9202 (co-expression; SPR read-out of light-chain tags; L1:L2 DNA 1:3, normalized to 1:1); competing light chain m13.
For assay [31], the target named is D3H44 Fab heavy chain L124R_S186R, C-terminal ABD2-His6 tag. The assay is described as follows: LCCA set 9544 (co-expression; SPR read-out of light-chain tags; L1:L2 DNA 1:3, normalized to 1:1); competing light chain m13.

On to “D3H44 light chain Q124K_V133G_S176R_T178R, N-terminal HA or FLAG tag”, for which the H1L1:H1L2 normalized median ratio (H1L1 part) in assay [1] is 84%; in assay [8], 91%; in assay [17], 88%; in [18], 86%. In addition, the H1L1:H1L2 normalized median scalar value ln(r1/f1) in assay [1] was determined as 1.67; in assay [2] it was 1.9; in [4], 2.15; in assay [8] it was 2.34; in [15], 2.34; in [17], 2. The H1L1:H1L2 normalized median scalar value ln(r1/f1) in assay [18] is 1.82. Besides, the H1L1:H1L2 normalized median ratio worked out at 87% in [2], 90% in assay [4], 87% in [5] and 88% in assay [7]. The H2L2:H2L1 normalized median ratio in assay [3] and in assay [6] was 7% each time. In addition, the H2L2:H2L1 normalized median ratio (H2L1 part) was 11% in assay [9], 9% in [10] and 8% in assay [16]. Further, the H1L1:H1L2 normalized median ratio (% (ratio normalized to 100)) was 87 in assay [11], 88 in [13] and 91 in assay [15]. The H2L2:H2L1 normalized median ratio (% (ratio normalized to 100)) in [12] stood at 7; in assay [14], 5.

With “D3H44 light chain V133G_S176D_T178E_T180E, N-terminal HA or FLAG tag”, the H2L2:H2L1 normalized median ratio in assay [19] stood at 94%; in assay [20], 93%. In assay [21], the H1L1:H1L2 normalized median ratio was 13%. The H1L1:H1L2 normalized median ratio (H1L2 part) was found to be 13% in assay [22], 14% in assay [29] and 16% in assay [30]. Also, the values for the H2L2:H2L1 normalized median ratio (% (ratio normalized to 100)) in [23], in assay [24] and in assay [26] were 91, 90 and 90, respectively. Further, the figures for the H1L1:H1L2 normalized median ratio (% (ratio normalized to 100)) in assay [25] and in [27] were 5 and 6, respectively. Besides, the H2L2:H2L1 normalized median ratio (H2L2 part) in [28] was determined as 91%; in assay [31], 92%.

Values taken from patent US11306156.
